The values below come from patent US20250277059A1, “ANTIBODY USED TO TREAT CORONAVIRUS INFECTION” (priority 2022, published 2025).

Numbering of substitutions follows the chain as printed. In names and notes the source's numbering stands.

Sequences and labels used below:
T1: TMPRSS-11D (human, UniProt O60235)
T1 sequence (single chain, looked up): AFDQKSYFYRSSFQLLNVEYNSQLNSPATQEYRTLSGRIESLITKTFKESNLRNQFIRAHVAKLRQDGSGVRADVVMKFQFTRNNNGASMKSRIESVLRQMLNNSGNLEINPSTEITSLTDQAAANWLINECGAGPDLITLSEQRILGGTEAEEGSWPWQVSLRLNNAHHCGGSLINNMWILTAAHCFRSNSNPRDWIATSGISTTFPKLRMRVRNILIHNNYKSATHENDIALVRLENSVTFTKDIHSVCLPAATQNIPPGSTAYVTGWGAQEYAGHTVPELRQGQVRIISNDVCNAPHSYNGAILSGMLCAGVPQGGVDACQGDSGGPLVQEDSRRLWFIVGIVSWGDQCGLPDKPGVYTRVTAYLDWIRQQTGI

T2: TMPRSS-11E (human, UniProt Q9UL52)
T2 sequence (single chain, looked up): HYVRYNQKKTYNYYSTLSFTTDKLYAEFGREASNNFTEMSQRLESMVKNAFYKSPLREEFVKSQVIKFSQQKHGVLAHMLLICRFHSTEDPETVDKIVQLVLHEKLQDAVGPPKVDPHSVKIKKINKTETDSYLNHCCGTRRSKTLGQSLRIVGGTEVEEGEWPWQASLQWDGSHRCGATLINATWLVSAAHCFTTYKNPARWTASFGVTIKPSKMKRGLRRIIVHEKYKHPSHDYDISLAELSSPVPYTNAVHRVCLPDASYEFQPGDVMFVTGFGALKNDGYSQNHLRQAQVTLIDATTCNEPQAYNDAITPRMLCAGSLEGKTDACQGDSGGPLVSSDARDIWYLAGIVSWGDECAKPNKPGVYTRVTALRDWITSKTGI

T3: TMPRSS-13 (human, UniProt Q9BYE2)
T3 sequence (single chain, looked up): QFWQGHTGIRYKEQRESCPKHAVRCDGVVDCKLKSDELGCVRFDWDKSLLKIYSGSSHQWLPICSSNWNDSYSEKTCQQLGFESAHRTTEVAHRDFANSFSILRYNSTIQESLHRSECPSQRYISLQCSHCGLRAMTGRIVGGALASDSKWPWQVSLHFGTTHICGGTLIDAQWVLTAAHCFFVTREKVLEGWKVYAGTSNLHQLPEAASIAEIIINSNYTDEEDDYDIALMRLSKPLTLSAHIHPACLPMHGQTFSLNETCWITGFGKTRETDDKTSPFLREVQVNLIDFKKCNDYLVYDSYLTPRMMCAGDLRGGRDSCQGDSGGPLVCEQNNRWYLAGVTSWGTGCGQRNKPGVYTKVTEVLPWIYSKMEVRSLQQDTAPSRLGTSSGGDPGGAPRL

B1: humanized 2228-15 IgG4 (S108P) prototype #1 (antibody, V domains shown)
VH: QVQLVQSGAEVKKPGASVKVSCKASGYTFTDYYINWVRQAPGQGLEWMGWIFPGSGSSYYNAIFKGRVTMTRDTSISTAYMELSRLRSDDTAVYYCARGDFGNFGGFFTYWGQGTLVTVSS
VL: DVVMTQSPLSLPVTLGQPASISCRASKSVSTSGYSFMHWFQQRPGQSPRRLIYLASNLESGVPDRFSGSGSGTDFTLKISRVEAEDVGVYYCQHSRELPLTFGGGTKVEIK
notes: also called humanized #1; hu #1
B2: humanized 2228-15 IgG4 (S108P) prototype #3 (antibody, V domains shown)
VH: EIQLVQSGAEVKKPGSSVKVSCKASGYTFTDYYINWMRQAPGQGLEWIGWIFPGSGSSYYNAIFKGRATLTVDTSTNTAYMELSSLRSEDTAFYFCARGDFGNFGGFFTYWGQGTLVTVSS
VL: B1 VL
notes: also called humanized #3; hu #3
B3: humanized 752-1 IgG4 (S108P) prototype #1 (antibody, V domains shown)
VH: QVQLVQSGAEVKKPGASVKVSCKASGYTFTSCGISWVRQAPGQGLEWMGEIYPRGGNTYYNEKFKGRVTMTTDTSTSTAYMELRSLRSDDTAVYYCARENGNYDPLFAYWGQGTLVTVSS
VL: DIQMTQSPSSLSASVGDRVTITCKASQDINKYIAWYQQKPGKAPKLLIYYTSTLQPGVPSRFSGSGSGTDFTFTISSLQPEDIATYYCLQYYNLWTFGGGTKVEIK
notes: as for B1
B4: humanized 752-1 IgG4 (S108P) prototype #3 (antibody, V domains shown)
VH: QVQLQQSGTGLARPGASVKLSCKASGYTFTSCGISWVTQRAGQGLEWIGEIYPRGGNTYYNEKFKGKATLTADKSSSSAYMELRGLTAEDSAVYFCARENGNYDPLFAYWGQGTTLTVSS
VL: B3 VL
notes: as for B2
B5: humanized 752-1 IgG4 (S108P) prototype #4 (antibody, V domains shown)
VH: B4 VH
VL: B3 VL with Y49H
notes: also called humanized #4; hu #4
B6: humanized 752-1 IgG4 (S108P) prototype #2 (antibody, V domains shown)
VH: B3 VH
VL: B3 VL with Y49H
notes: also called humanized #2; hu #2
B7: humanized 2228-15 IgG4 (S108P) prototype #4 (antibody, V domains shown)
VH: B2 VH
VL: DIVMTQSPDSLAVSLGERATINCRASKSVSTSGYSFMHWYQQKPGQPPKLLIYLASNLESGVPDRFSGSGSGTDFTLTIRPLQAEDVAVYYCQHSRELPLTFGQGTKLEIK
notes: as for B5
B8: 2114_16: mouse anti-human TMPRSS2 monoclonal antibody, IgG2c λ; VH SEQ ID NO: 106, VL SEQ ID NO: 107 (antibody, V domains shown)
VH: EVQLQQSGPELVKPGASVKISCKASGYTFTDYYMNWVKRRHGKSLEWIGNINPNNGGTSYNQKFKGKATLTVDKSSSTAYMELRSLTSEDSVVYYCAREGDLFPFAYWGQGTLVTVSA
VL: QAVVTQESALTTSPGETVTLTCRSSIGTVTTSNFANWVQEKPDHLFTGLIGASNNRAPGVPARFSGSLIGDKAALTITGAQTEDEAIYFCALWFSNHWVFGGGTKLTVL
modifications: mouse IgG2c lambda constant regions; 2114_16 VH; 2114_16 VL
B9: 1831_15: mouse anti-human TMPRSS2 monoclonal antibody, IgG2b κ; VH SEQ ID NO: 98, VL SEQ ID NO: 99 (antibody, V domains shown)
VH: QVQLQQPGAELVKPGASVKLSCKASGYSFTTYWMHWVRQRPGQGLEWIGIIHPNSGTTNYNEKFKSKASLTVDKSSSTAYMQLSSLTSEDSAVYYCARLLWDYFDYWGQGTTLTVSS
VL: DIVMSQSPSSLAVSAGEKVTMSCKSSQSLLNSRTRKNFLAWYQQKPGQSPKLLIYWASTRESGVPDRFTGSGSGTDFTLTISSVQAEDLAVYYCKQSYNLYTFGGGTKLEIK
modifications: mouse IgG2b kappa constant regions; 1831_15 VH; 1831_15 VL
B10: 2228_15 antibody (antibody, V domains shown)
VH: QVQLQQSGPELVKPGTSVKISCKASGYTFTDYYINWVKQRPGQGLEWIGWIFPGSGSSYYNAIFKGKATLTVDTSSNTAHMSLSSLTSDDSAVYFCARGDFGNFGGFFTYWGQGTLVTVSA
VL: DVVVTQSPASLAVSLGQRATISCRASKSVSTSGYSFMHWYQQKPGQPPKLLIYLASNLESGVPARFSGSGSGTDFILNIHPVEEEDAATYYCQHSRELPLTFGAGTKLELK
B11: 752_1 antibody (antibody, V domains shown)
VH: B4 VH with T9A, G10E, T38K, A41T, S78T, G85S, A88S, T115L, L116V, S120A
VL: DIQMTQSPSSLSASLGGKVTITCKASQDINKYIAWYQHKPGKGPRLLIHYTSTLQPGIPSRFSGSGSGRDYSFSIYNLEPEDIATYYCLQYYNLWTFGGGTKLEIK

T4 sequence (O15393 other isoform, or with tags, fused parts or gaps limits assumed): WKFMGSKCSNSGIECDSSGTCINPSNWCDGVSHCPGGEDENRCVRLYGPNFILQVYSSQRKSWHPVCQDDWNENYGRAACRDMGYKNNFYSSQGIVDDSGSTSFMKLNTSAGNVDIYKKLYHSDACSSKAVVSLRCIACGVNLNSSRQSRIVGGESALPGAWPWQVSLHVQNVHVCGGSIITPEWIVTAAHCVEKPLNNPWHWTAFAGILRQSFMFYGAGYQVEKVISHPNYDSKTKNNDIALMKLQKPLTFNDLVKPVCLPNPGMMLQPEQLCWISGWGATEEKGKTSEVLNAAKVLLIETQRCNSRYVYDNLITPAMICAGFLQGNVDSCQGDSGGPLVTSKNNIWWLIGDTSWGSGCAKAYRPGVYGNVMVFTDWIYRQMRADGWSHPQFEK

The first assay addresses T4, Human TMPRSS2 recombinant protein, extracellular region (N-terminal His tag, C-terminal Strep-tag II) (human, UniProt O15393 106-492).
T4 construct: also called Human TMPRSS2 recombinant proteins; extracellular region of human TMPRSS2
As to the kind of experiment: SPR (BIACore).
Conditions: not given
For orientation: Surface plasmon resonance follows binding to a sensor surface in real time, without labels.
Turning to B1, the Kd is 12.3 nM, the off-rate constant (koff) is 0.0641 s⁻¹ and the kon is 5.22e+06 M⁻¹ s⁻¹.
For B2 the same measures were 0.938 nM, 0.000774 s⁻¹ and 825000 M⁻¹ s⁻¹.
B3: the Kd came out at 22.6 nM, the koff is 0.00932 s⁻¹ and the kon turned out to be 412000 M⁻¹ s⁻¹.
As for B4, the Kd was determined as 2.11 nM, the koff was 0.00469 s⁻¹ and the on-rate constant (kon) turned out to be 2.22e+06 M⁻¹ s⁻¹.
Consider B5, for which the dissociation constant Kd turned out to be 2.44 nM, the dissociation rate constant (koff) came to 0.00611 s⁻¹ and the kon was found to be 2.5e+06 M⁻¹ s⁻¹.
For the molecule B6, the equilibrium dissociation constant (Kd) is 13.4 nM, the off-rate (koff) worked out at 0.0152 s⁻¹ and the on-rate (kon) worked out at 1.13e+06 M⁻¹ s⁻¹.
B7: the dissociation rate constant (koff) was 0.0001 s⁻¹ and the on-rate constant (kon) is 1.44e+06 M⁻¹ s⁻¹.

The next assay addresses T5, human TMPRSS2 (Homo sapiens, UniProt O15393). As to the kind of experiment: Competitive inhibition between anti-TMPRSS2 mAbs (flow cytometry). It is filed as binding. Particulars: FIG. 3C.
Target sequence in this assay (O15393 whole entry): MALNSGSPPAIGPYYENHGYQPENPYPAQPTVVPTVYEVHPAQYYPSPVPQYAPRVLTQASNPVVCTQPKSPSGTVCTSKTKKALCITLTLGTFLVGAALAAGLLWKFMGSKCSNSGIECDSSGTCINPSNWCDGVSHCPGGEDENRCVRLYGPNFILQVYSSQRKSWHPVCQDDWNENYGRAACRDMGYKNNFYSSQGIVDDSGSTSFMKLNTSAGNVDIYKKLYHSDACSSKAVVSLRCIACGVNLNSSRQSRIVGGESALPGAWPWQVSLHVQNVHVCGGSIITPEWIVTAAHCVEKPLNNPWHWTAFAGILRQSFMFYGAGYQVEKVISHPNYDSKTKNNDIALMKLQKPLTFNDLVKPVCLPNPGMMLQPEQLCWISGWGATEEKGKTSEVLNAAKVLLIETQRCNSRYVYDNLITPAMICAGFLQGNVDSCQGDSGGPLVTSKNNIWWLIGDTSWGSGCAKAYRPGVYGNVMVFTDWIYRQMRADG
With B8, the “competition with 1831_15 antibody for binding to human TMPRSS2” value is “weakly competed”.

The subject of another assay is TMPRSS2 of non-human animal species.
Experiment: not given
In kind it is binding. Particulars: Table 3; species whose TMPRSS2 is bound.
As for B9, the Cross-reactivity result is given as “Cynomolgus monkey”.

The next assay deals with T4, Human TMPRSS2 recombinant protein, …. Kind of assay: SPR (BIAcore); rounded repeat of Table 1.
Conditions: not given
Take B10: the Kd turned out to be 8.4 nM.

The target in another assay is T6, Human TMPRSS2 expressed on cells (human, UniProt O15393 1-492).
T6 construct: also called TMPRSS2 expressing cells; Daudi-TMPRSS2 transfectant
T6 sequence (O15393 whole entry): as above
Experiment: not given
Conditions: not given
For B1, the “APC median at 3 µg/ml” value came out at 579.
Take B2: the “APC median at 3 µg/ml” value was 862.
Still for that read-out and setting: to B3 belongs 1450; to B4, 1560.
As for B5, the “APC median at 3 µg/ml” value was 1650.
On the same count and under the same terms, the result for B6 reads 1410.
For the molecule B7, the “APC median at 3 µg/ml” value was found to be 1990.

The next assay addresses T1, TMPRSS-11D. Kind of assay: ELISA, Strep-tagged protein on streptavidin plate.
Conditions: not given
(In general: ELISA stands for enzyme-linked immunosorbent assay.)
As to B10, the binding result is on record as “no binding (tested: 10 µg/mL)”.
B11: the binding result is on record as “no binding (tested: 10 µg/mL)”.

A further assay has as its target T2, TMPRSS-11E. Kind of assay: ELISA, Strep-tagged protein on streptavidin plate.
Conditions: not given
Regarding B10, the binding result was “no binding (tested: 10 µg/mL)”.
B11: the binding result is listed as “no binding (tested: 10 µg/mL)”.

For a further assay, the target named is TMPRSS-11F (human, UniProt Q6ZWK6). Kind of assay: ELISA, Strep-tagged protein on streptavidin plate.
TMPRSS-11F, sequence (Q6ZWK6 54-438 limits assumed): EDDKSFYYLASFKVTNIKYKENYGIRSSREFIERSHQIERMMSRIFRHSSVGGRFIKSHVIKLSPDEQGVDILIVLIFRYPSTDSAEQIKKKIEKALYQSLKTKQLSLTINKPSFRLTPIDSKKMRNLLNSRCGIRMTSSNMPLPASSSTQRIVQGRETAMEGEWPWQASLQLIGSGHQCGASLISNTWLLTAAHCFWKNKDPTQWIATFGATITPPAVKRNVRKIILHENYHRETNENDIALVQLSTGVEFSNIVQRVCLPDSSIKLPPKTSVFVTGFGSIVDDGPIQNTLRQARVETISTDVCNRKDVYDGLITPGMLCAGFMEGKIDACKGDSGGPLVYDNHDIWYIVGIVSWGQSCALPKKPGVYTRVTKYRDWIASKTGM
Conditions: not given
Regarding B10, the binding result is reported as “no binding (tested: 10 µg/mL)”.
In the case of B11, the binding result was “no binding (tested: 10 µg/mL)”.

The next assay has as its target T3, TMPRSS-13. Kind of assay: ELISA, Strep-tagged protein on streptavidin plate.
Conditions: not given
For B10, the binding result was “no binding (tested: 10 µg/mL)”.
Regarding B11, the binding result is reported as “no binding (tested: 10 µg/mL)”.

The target of the next assay is T4, Human TMPRSS2 recombinant protein, …. Kind of assay: SPR (BIAcore), captured mAb, soluble human TMPRSS2 extracellular region.
Conditions: not given
For the molecule B10, the dissociation constant (Kd) was 8.41 nM.

Another assay concerns the target T5, human TMPRSS2. Kind of assay: BIACore binding assay of anti-TMPRSS2 antibodies. Particulars: Table 1, mouse mAbs, 25° C.
Target sequence in this assay (O15393 106-492 limits assumed): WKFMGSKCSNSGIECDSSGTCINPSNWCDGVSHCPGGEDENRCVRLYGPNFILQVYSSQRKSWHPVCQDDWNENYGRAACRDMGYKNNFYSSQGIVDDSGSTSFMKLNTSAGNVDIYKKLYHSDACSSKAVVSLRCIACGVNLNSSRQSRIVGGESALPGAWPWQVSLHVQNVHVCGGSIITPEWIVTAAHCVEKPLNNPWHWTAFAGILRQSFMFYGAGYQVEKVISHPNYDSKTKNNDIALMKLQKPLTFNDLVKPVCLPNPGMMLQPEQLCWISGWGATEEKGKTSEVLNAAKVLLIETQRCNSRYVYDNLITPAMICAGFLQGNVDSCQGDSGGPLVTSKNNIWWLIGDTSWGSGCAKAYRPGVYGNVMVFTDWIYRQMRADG
As to B8, the “ka” value was determined as 570000 M⁻¹ s⁻¹ and the “kd” value came to 0.000591 s⁻¹.
Consider B9, for which the “ka” value is 563000 M⁻¹ s⁻¹ and the “kd” value was 0.000236 s⁻¹.

The term Kd denotes a measure of binding affinity in units of concentration. In general, koff refers to the first-order rate constant of dissociation. What is called kon is the rate constant with which the complex forms.
